Source: patent publication US9422541

Target: T1, Recombinant C5a produced as an N-term His-tagged fusion (HT-C5a)
T1 chain: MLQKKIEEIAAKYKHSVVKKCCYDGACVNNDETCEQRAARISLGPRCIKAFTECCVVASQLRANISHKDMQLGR

B1: ScpA, bacterial C5a protease from Streptococcus pyogenes (protein)
chain: DANDLAPQAPAKTADTPATSKATIRDLNDPSQVKTLQEKAGKGAGTVVAVIDAGFDKNHEAWRLTDKTKARYQSKEDLEKAKKEHGITYGEWVNDKVAYYHDYSKDGKTAVDQEHGTHVSGILSGNAPSETKEPYRLEGAMPEAQLLLMRVEIVNGLADYARNYAQAIRDAVNLGAKVINMSFGNAALAYANLPDETKKAFDYAKSKGVSIVTSAGNDSSFGGKTRLPLADHPDYGVVGTPAAADSTLTVASYSPDKQLTETAMVKTDDQQDKEMPVLSTNRFEPNKAYDYAYANRGMKEDDFKDVKGKIALIERGDIDFKDKVANAKKAGAVGVLIYDNQDKGFPIELPNVDQMPAAFISRKDGLLLKDNPQKTITFNATPKVLPTASGTKLSRFSSWGLTADGNIKPDIAAPGQDILSSVANNKYAKLSGTSMSAPLVAGIMGLLQKQYETQYPDMTPSERLDLAKKVLMSSATALYDEDEKAYFSPRQQGAGAVDAKKASAATMYVTDKDNTSSKVHLNNVSDKFEVTVTVHNKSDKPQELYYQATVQTDKVDGKHFALAPKVLYEASWQKITIPANSSKQVTVPIDASRFSKDLLAQMKNGYFLEGFVRFKQDPTKEELMSIPYIGFRGDFGNLSAVEKPIYDSKDGSSYYHEANSDAKDQLDGDGLQFYALKNNFTALTTESNPWTIIKAVKEGVENIEDIESSEITETIFAGTFAKQDDDSHYYIHRHANGEPYAAISPNGDGNRDYVQFQGTFLRNAKNLVAEVLDKEGNVVWTSEVTEQVVKNYNNDLASTLGSTRFEKTRWDGKDKDGKVVANGTYTYRVRYTPISSGAKEQHTDFDVIVDNTTPEVATSATFSTEDRRLTLASKPKTSQPVYRERIAYTYMDEDLPTTEYISPNEDGTFTLPEEAETMEGATVPLKMSDFTYVVEDMAGNITYTPVTKLLEGHS
  C5a-ase activity (SDS-PAGE of C5a treated with ScpA; 42 nM ScpA with 37 µM HT-C5a, 30 min at 20° C.): the ScpA cleaved C5a at a single site
  mass loss of cleaved HT-C5a by MALDI-TOF MS: a loss of 830 Da, consistent with the removal of seven residues from the C terminal
